Where “and” joins values, the source holds several entries; their conditions need not be identical. Equal entries are not always repeated.
T1: lambda terminase holoenzyme ring (TerL•TerS2)5 (Escherichia phage Lambda, UniProt P03708)
T1 construct: gene A; assembled ring of five TerL•TerS2 protomers; with Terminase small subunit
T1 sequence (P03708 1-641): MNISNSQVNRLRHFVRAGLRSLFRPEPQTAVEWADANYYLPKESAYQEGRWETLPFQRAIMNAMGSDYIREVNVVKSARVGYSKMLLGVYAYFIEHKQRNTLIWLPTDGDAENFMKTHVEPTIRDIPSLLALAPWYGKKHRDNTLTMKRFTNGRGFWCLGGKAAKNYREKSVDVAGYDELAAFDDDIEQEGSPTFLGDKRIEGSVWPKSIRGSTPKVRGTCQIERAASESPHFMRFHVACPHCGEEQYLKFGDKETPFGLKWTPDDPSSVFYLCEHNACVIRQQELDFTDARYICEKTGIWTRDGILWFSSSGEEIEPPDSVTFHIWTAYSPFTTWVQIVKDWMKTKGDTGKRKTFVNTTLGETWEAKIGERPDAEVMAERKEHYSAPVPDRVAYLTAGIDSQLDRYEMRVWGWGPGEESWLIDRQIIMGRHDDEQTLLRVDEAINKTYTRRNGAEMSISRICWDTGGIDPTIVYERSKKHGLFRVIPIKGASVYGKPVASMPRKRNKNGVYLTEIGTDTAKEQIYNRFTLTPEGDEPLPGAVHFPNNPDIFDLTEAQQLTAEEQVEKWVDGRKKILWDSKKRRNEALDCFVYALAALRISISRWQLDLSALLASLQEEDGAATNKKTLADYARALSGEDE
T1 sequence (P03707 1-181 partner): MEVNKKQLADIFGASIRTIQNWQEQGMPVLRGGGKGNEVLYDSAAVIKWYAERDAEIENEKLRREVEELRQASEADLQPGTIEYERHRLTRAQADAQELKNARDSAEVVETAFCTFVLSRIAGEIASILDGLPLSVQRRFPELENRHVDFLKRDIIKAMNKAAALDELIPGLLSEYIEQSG

B1: bacteriophage λ terminase small subunit (TerS) (natural protein, UniProt P03707 1-181, looked up)
chain: T1 sequence (P03707 1-181 partner)
notes: small DNA recognition terminase subunit TerS of bacteriophage lambda; Never tested as an isolated subunit, only as part of the protomer or ring; also called small terminase
B2: bacteriophage λ terminase large subunit (TerL) (enzyme, UniProt P03708 1-641, looked up)
chain: T1 sequence (P03708 1-641)
notes: large catalytic terminase subunit TerL of bacteriophage lambda; Never tested as an isolated subunit, only as part of the protomer or ring; also called large terminase

Assays:
[1] = target: T1, lambda terminase holoenzyme ring (TerL•TerS2)5; test: ATPase assay, […] TLC, phosphorimaging; format: biochemical; conditions: labelled compound; 10 nM terminase; 50 mM Tris-HCl pH 9, 10 mM MgCl2, 60 mM NaCl, 2 mM spermidine, 37 °C
[2] = target: T1, lambda terminase holoenzyme ring (TerL•TerS2)5; test: cryoEM 2D class averages (conformational change); format: binding; conditions: 1 mM ATPγS; no DNA mentioned; no 3D reconstruction
[3] = target: bacteriophage λ terminase protomer (TerL•TerS2) (bacteriophage λ) (UniProt P03708); test: cryo-EM 2D class averages; purified terminase ring at 0.5 mg/ml with 1 mM ATPγS; no 3D reconstruction
[4] = target: bacteriophage λ terminase protomer (TerL•TerS2) (bacteriophage λ) (UniProt P03708); test: SAXS; assembled terminase ring at 0.25, 0.50 and 0.80 mg/ml, 5°C; mass from the Porod-invariant volume; protomers to ring
[5] = target: bacteriophage λ terminase protomer (TerL•TerS2) (bacteriophage λ) (UniProt P03708); test: cryo-EM 2D class averages; purified terminase ring at 0.5 mg/ml, no ligand (apo); no 3D reconstruction
[6] = target: bacteriophage λ terminase protomer (TerL•TerS2) (bacteriophage λ) (UniProt P03708); test: native MS; charge detection mass spectrometry (CDMS) of the assembled ring, 300 mM ammonium acetate pH 8.34
[7] = target: B2; test: native MS; charge detection mass spectrometry (CDMS) of the terminase protomer, 200 mM ammonium acetate; conditions: both partners purified
[8] = target: the molecule itself; test: cryo-EM 2D class averages; purified terminase ring at 0.5 mg/ml with 1 mM ATPγS; no 3D reconstruction

Nc1ncnc2c1ncn2[C@@H]1O[C@H](COP(=O)(O)OP(=O)(O)OP(=O)(O)O)[C@@H](O)[C@H]1O [ATP] was tested, and the Km [1] was 0.495 ± 0.07 µM.

With Nc1ncnc2c1ncn2[C@@H]1O[C@H](COP(=O)(O)OP(=O)(O)OP(O)(O)=S)[C@@H](O)[C@H]1O [ATPγS] the “cryoEM 2D class averages (conformational change)” value [2] was “we imaged the λ terminase ring bound to ATP-γS, a poorly hydrolyzed ATP analog”.

With “bacteriophage λ terminase protomer (TerL•TerS2) (from UniProt P03708 1-641; P03707 1-181) (complex)” the stoichiometry N [3] was 5, the stoichiometry N [4] was 5.1 and 4.2 and 4.4 and the stoichiometry N [5] was 5. For the same molecule, the stoichiometry N [6] was 5 protomers.

B1: binds [7].

B2: binds [8].

Reference: paper PMC10810279, “Biophysical and structural characterization of a multifunctional viral genome packaging motor” (Nucleic Acids Research, 2023)
